Assay results as given in the supplement of paper PMC12764529.
± gives the half width of the 95% confidence interval.

Test: folding stability dG unfold from trypsin proteolysis; higher = more stable
Summary of the method: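 Designed mini-proteins (under 80 residues, no cysteine) in a PA-tagged cDNA display construct were digested with trypsin and chymotrypsin. Each protease was used at 11 concentrations (threefold dilutions) plus a no-protease condition, followed by sequencing. K50 was inferred by Bayesian fitting of sequencing counts, and unfolding free energy was derived against a sequence-predicted unfolded-state K50 and a shared folded-state K50, per protease or combined. Only designs with AlphaFold2 dimer inter-PAE above 15 were kept.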

Point of comparison: “SAGGSAGGSKKPVLAKIAILNSGSPEVAEELAKRLAAELGLSPDEVKVELHVIPVTAPGELLFSAGGSAGGS [r12_1066_TrMRF]”, “folding stability dG unfold” value 0.465 ± 0.02 kcal/mol. Against it:
- SAGKSIKILITTEKEEEAKKLAEEIKKELPKLGYKVEVYIMPKEEFEKFLKEFVVPEPDGKLVKVDLSSAGG [r19_187_TrMRF] — within error, 0.482 ± 0.056 kcal/mol
- SAGGTVTLTLELTVKVKRKDGKTETKKVTLTITVEVKEGETVYTPDGKKIKPGKSAEELAKELLKKLSAGGS [r16_440_TrROS_Hall] — higher, 1.17 ± 0.089 kcal/mol
- SASPRTITVPVTRFPDGTVRFTIETPDKTITLTFPPSATFEEALEKLSPDPDKKITLVEKDPTTVTVAESAG [r14_404_JUSTAS] — higher, 0.781 ± 0.051 kcal/mol
- SAGGSAGGSAGKKTVVIKDAEIVEVEEENGYLKVRIKVTNPDGSEEEFTFTFKPGDVIELSAGGSAGGSAGG [r11_211_TrROS_Hall] — higher, 2.01 ± 0.07 kcal/mol
- SAGGKNVKKYVPIEIEIEAPSPEVAEATAEEIEKIIREKFPGAKVEVEMEPLPDGGYKLKVKVYVPVGSAGG [r13_17_TrMRF] — higher, 1.82 ± 0.059 kcal/mol
- SAGGSASPVLTTVTFPGSPEELEAYAAEVRAAGTLLSVSFSPSPDPSYYTITLQVRAPDGTYFTAESAGGSA [r15_177_JUSTAS] — higher, 1.14 ± 0.03 kcal/mol
- SAGPFILVKFVTPDGRPLYYVIEIPESEEPEKLTLEQALEVAEAIAKALASKGGFEVKEVKIVSPEEFSAGG [r19_27_TrMRF] — higher, 3.43 ± 0.083 kcal/mol
- SKKVEIKIKVERNEDGYLTVTIEIRAETEEELLEAAKELAKALFPEDVEIRVEKLPDGTVKITIVVKLPPSA [r9_646_TrROS_Hall] — higher, 2.65 ± 0.15 kcal/mol
- SKGKKTVTINFMLKVEDPEDLPPGQEVKIPPEFIDFLRDQGFKITEIKIRVVPPPDGDVYVMFSSTIEVDSA [r9_465_TrROS] — higher, 1.99 ± 0.097 kcal/mol
- SAGGSAGGSAGGSPNPLLPPVRPKVILKDPKTGTTKTFTTEEEAKKAVESGEYTVLKIESAGGSAGGSAGGS [r10_520_JUSTAS] — lower, -0.0844 ± 0.066 kcal/mol
- SAGKKKKITIEIVIKPKTLEELENKIKEIAKKLGLKKIEKIEIVKIEKDKNGKIKKVVIKITLTEEALKSAG [r5_575_TrROS_Hall] — higher, 1.51 ± 0.12 kcal/mol
- SAGGSAGGSASNVKILGLVSVDPETGLVRLAAYDPETGKVLYFIAPNADGEPLLLEVEENPGSAGGSAGGSA [r18_296_TrMRF] — higher, 1.8 ± 0.041 kcal/mol
- SAGGSAGGSAGGPKVFKFKDKIIVIYPNKKPNEEVKVVVKNPKTGKKEEFKIKIPKELLKSAGGSAGGSAGG [r7_834_TrMRF] — within error, 0.512 ± 0.079 kcal/mol
- SAGGSAGGSKLEEILKKLPPNAKITIEKDEETNVYTITITNKNGEKYTFTFSKEEVKKLLEKLSAGGSAGGS [r12_174_TrROS_Hall] — higher, 3.13 ± 0.19 kcal/mol
- SAGGSAGGSGLPIVVQEDGTLVLRREGDGTAAFDVVPLEEFERLPEEFLESLPASALPDPLPLSAGGSAGGS [r12_793_JUSTAS] — lower, -0.428 ± 0.2 kcal/mol
- SAGPIKELLEFLKANPDAVVEFEFTLPNGAKVKIKAKKFPDAVVLEVTTIDPNNKKPITGTITIPLPESAGG [r19_143_TrMRF] — higher, 4.15 ± 0.13 kcal/mol
- SAGGSAMREIRVGDTVVRILSIDPSTGEVHIAVREDLPPETIEAARRALEEAGLRFRVEPVPEELLSAGGSA [r15_570_TrMRF] — higher, 1.73 ± 0.065 kcal/mol
- SAGGMKFELVARFDSKEAAEKAVEELVRELFPDFDVEVEVEVIEDPETGTFLAIATITLPLPGPEDLSAGGS [r8_17_TrMRF] — higher, 4.31 ± 0.21 kcal/mol
- SAGGPKVVRIRYTMPPDQARDFIEELFGRPMSADDIADKLPPGFKVGIRAHPNPNGHVTFEIWIKLPDSAGG [r13_869_TrROS] — higher, 2.37 ± 0.062 kcal/mol
- SAGGMPYTLVGEKTESLGEGNTVVTKTYKPPDGTYTVETTTITTDPENGSTSTTSTTTTIPPNTPEALSAGG [r19_173_JUSTAS] — lower, -1.12 ± 0.34 kcal/mol
- SAGGSAKIEEIASLPAEEIAEAFGLTVISATVERFEDGTVVLTVEIAPPLGPPIRVTFVFGVDPEKSAGGSA [r15_805_TrMRF] — higher, 2.21 ± 0.045 kcal/mol
- SAGGSAGGSAMRLRLKVKPGEKVRIRVERDGKVYEFEVTVEEGADEIEIDLPPGVKRIEIEPSAGGSAGGSA [r18_124_TrROS_Hall] — higher, 2.76 ± 0.21 kcal/mol
- SAGGSAGGKKKKKPPKKKYFYVEIEIELTPEEIEKLKELFPDVKVEVEEKDGKLRVRITVRVKLSAGGSAGG [r6_685_TrROS_Hall] — higher, 2.79 ± 0.16 kcal/mol
- SAGGKIKIQFNGQEFTITEFEIIEPQPNKGGGPYYRIRIKFPNGPMEIMIPPNMPPEIKPGDTFTIASAGGS [r16_638_TrROS] — higher, 1.797 ± 0.015 kcal/mol
- MRITLELEDGTRVEIEFERKEDGTLVVRIKVTRKDGKTVEIEVVVRSKDGKITPEELERALREALEELLKKS [r1_124_TrROS_Hall] — higher, 4.19 ± 0.24 kcal/mol
- SMKIPGMSAKEKLRKAIEALLEEAEKKGIKEITIKIYNKKTKKPIKEIKFKSKEELLKKIEEGDEVEIEFSA [r9_718_TrROS_Hall] — higher, 2.1 ± 0.045 kcal/mol
- SAGGSAGGSAGGSKEIKVEVEEKDGKLTVTVTFPDGSKVEIEGMSAEEVEKLVKELAKKSAGGSAGGSAGGS [r4_383_TrROS_Hall] — higher, 1.4 ± 0.061 kcal/mol
- SAGGSAGGSAGDGMIEVKVEFERLFFDENGNVTKKEKVDEIIKVPPVTIDTSTGKLTPLPSAGGSAGGSAGG [r17_413_JUSTAS] — lower, 0.261 ± 0.051 kcal/mol
- SAGGSAGGSSVIEVTFSDGSKALFFPGSQKVVVYNPSTKKKIVIPPGVSPETALKAIAEGKPISAGGSAGGS [r12_832_TrMRF] — higher, 0.91 ± 0.056 kcal/mol
- SAGGSVEVTKTESKGPGGTVTVEALKTVTKFDEKGNPVKEEEVRITRTETYDPNTGKVTTTTTVEGSAGGSA [r2_220_JUSTAS] — lower, -0.0891 ± 0.061 kcal/mol
